Precipitating fraction data for four molecules are collected here from paper PMC5322768 (Developmental dynamics : an official publication of the …, 2016).

The target of test [1] is TMEM47-GFP (murine TMEM47 tagged with GFP) (murine) (UniProt Q9JJG6). In words: co-IP.
Test [2] concerns the target TMEM47-GFP (murine TMEM47 tagged with GFP) (murine, UniProt Q9JJG6 1-181). Description: co-IP.

TMEM47-GFP (murine TMEM47 tagged with GFP), sequence (Q9JJG6 whole entry): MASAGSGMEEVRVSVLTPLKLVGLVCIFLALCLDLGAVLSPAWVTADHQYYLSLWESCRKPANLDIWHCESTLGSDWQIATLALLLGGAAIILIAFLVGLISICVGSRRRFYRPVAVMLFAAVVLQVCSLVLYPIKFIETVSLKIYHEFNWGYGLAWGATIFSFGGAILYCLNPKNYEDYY
TMEM47-GFP (murine TMEM47 tagged with GFP) (murine), sequence (Q9JJG6 whole entry): as above

In the case of α-catenin (natural protein), the precipitating fraction in test [1] was < 5%.

B1: aPKCλ–myc (myc-tagged aPKCλ) (enzyme, murine, UniProt Q62074 1-595, looked up)
chain: MPTQRDSSTMSHTVACGGGGDHSHQVRVKAYYRGDIMITHFEPSISFEGLCSEVRDMCSFDNEQPFTMKWIDEEGDPCTVSSQLELEEAFRLYELNKDSELLIHVFPCVPERPGMPCPGEDKSIYRRGARRWRKLYCANGHTFQAKRFNRRAHCAICTDRIWGLGRQGYKCINCKLLVHKKCHKLVTIECGRHSLPPEPMMPMDQTMHPDHTQTVIPYNPSSHESLDQVGEEKEAMNTRESGKASSSLGLQDFDLLRVIGRGSYAKVLLVRLKKTDRIYAMKVVKKELVNDDEDIDWVQTEKHVFEQASNHPFLVGLHSCFQTESRLFFVIEYVNGGDLMFHMQRQRKLPEEHARFYSAEISLALNYLHERGIIYRDLKLDNVLLDSEGHIKLTDYGMCKEGLRPGDTTSTFCGTPNYIAPEILRGEDYGFSVDWWALGVLMFEMMAGRSPFDIVGSSDNPDQNTEDYLFQVILEKQIRIPRSLSVKAASVLKSFLNKDPKERLGCHPQTGFADIQGHPFFRNVDWDMMEQKQVVPPFKPNISGEFGLDNFDSQFTNEPVQLTPDDDDIVRKIDQSEFEGFEYINPLLMSAEECV
Consider B1, for which the precipitating fraction in test [2] was < 5%.

B2: β-catenin (natural protein, canine (endogenous in MDCK), UniProt B6V8E6 1-781, looked up)
chain: MATQADLMELDMAMEPDRKAAVSHWQQQSYLDSGIHSGATTTAPSLSGKGNPEEEDVDTTQVLYEWEQGFSQSFTQEQVADIDGQYAMTRAQRVRAAMFPETLDEGMQIPSTQFDAAHPTNVQRLAEPSQMLKHAVVNLINYQDDAELATRAIPELTKLLNDEDQVVVNKAAVMVHQLSKKEASRHAIMRSPQMVSAIVRTMQNTNDVETARCTAGTLHNLSHHREGLLAIFKSGGIPALVKMLGSPVDSVLFYAITTLHNLLLHQEGAKMAVRLAGGLQKMVALLNKTNVKFLAITTDCLQILAYGNQESKLIILASGGPQALVNIMRTYTYEKLLWTTSRVLKVLSVCSSNKPAIVEAGGMQALGLHLTDPSQRLVQNCLWTLRNLSDAATKQEGMEGLLGTLVQLLGSDDINVVTCAAGILSNLTCNNYKNKMMVCQVGGIEALVRTVLRAGDREDITEPAICALRHLTSRHQEAEMAQNAVRLHYGLPVVVKLLHPPSHWPLIKATVGLIRNLALCPANHAPLREQGAIPRLVQLLVRAHQDTQRRTSMGGTQQQFVEGVRMEEIVEGCTGALHILARDVHNRIVIRGLNTIPLFVQLLYSPIENIQRVAAGVLCELAQDKEAAEAIEAEGATAPLTELLHSRNEGVATYAAAVLFRMSEDKPQDYKKRLSVELTSSLFRTEPMAWNETADLGLDIGAQGEPLGYRQDDPSYRSFHSGGYGQDALGMDPMMEHEMGGHHPGADYPVDGLPDLGHAQDLMDGLPPGDSNQLAWFDTDL
In the case of B2, in test [2], the precipitating fraction was < 5%.

B3: Par6B (natural protein, canine (endogenous in MDCK), UniProt A0A8I3PSX6 1-370, looked up)
chain: MNRSHRHGAGSGCLGTMEVKSKFGAEFRRFSLERSKPGKFEEFYGLLQHVHKIPNVDVLVGYADIHGDLLPINNDDNYHKAVSTANPLLRIFIQKKEEADYSAFGTDTLIKKKNVLTNVLRPDNHRKKPHIVISMPQDFRPVSSIIDVDILPETHRRVRLYKYGTEKPLGFYIRDGSSVRVTPHGLEKVPGIFISRLVPGGLAQSTGLLAVNDEVLEVNGIEVSGKSLDQVTDMMIANSRNLIITVRPANQRNNVVRNSRTSGSSGQSTDNSLLGYPQQVEPSFEPEDEDSDEDDIIIEDNGVPQQIPKAVPNTESFESLTQIELSFESGQNGFIPSNEVSLAPIASGTNTETRAPDQKLLEEDGTIITL
As to B3, the precipitating fraction in test [2] is < 5%.
